From publication PMC5445279, “Proanthocyanidin accumulation and transcriptional responses in the seed coat of cranberry beans (Phaseolus vulgaris L.) with different susceptibility to postharvest darkening” (BMC Plant Biology, 2017) come the findings set out here.

One data set deals with T1, PvANR1 (Phaseolus vulgaris, UniProt A0A1V0E4B3).
T1 construct: gene ANR1; full ORF (1014 bp PCR product) from seed coat cDNA, pET-30b, E. coli BL21; N-terminal His6 tag cut by enterokinase; forward primer encodes MATVKKIGK
Description: HPLC-DAD of epicatechin formation, substrate-inhibition fit. It is filed as biochemical. Conditions: substrate inhibition by cyanidin, product epicatechin; 800 μM NADPH, 50 mM HEPES pH 7.0, 30 °C; apparent. The source says:
(§1) HPLC-DAD of epicatechin formation, substrate-inhibition fit on PvANR1

Substrate in data set [1]: Oc1cc(O)c2cc(O)c(-c3ccc(O)c(O)c3)[o+]c2c1
The description is as above. It is filed as biochemical, Phaseolus vulgaris. As to conditions: product epicatechin, 800 μM NADPH, 50 mM HEPES pH 7.0, 30 °C, apparent, substrate inhibition model.
Source text: as §1

Substrate in data set [2]: NC(=O)C1=CN([C@@H]2O[C@H](COP(=O)(O)OP(=O)(O)OC[C@H]3O[C@@H](n4cnc5c(N)ncnc54)[C@H](OP(=O)(O)O)[C@@H]3O)[C@@H](O)[C@H]2O)C=CC1
Description: HPLC-DAD of epicatechin formation, Hill fit. It is filed as biochemical, Phaseolus vulgaris. As to conditions: product epicatechin, 100 μM cyanidin, 50 mM HEPES pH 7.0, 30 °C, Hill coefficient 2.5, varied: cofactor. The source says: HPLC-DAD of epicatechin formation, Hill fit on PvANR1

In the case of `Oc1cc(O)c2cc(O)c(-c3ccc(O)c(O)c3)[o+]c2c1` [cyanidin], the “K i” value on PvANR1 turned out to be 631.5 ± 119.9 µM.

B1: PvANR1 (Phaseolus vulgaris) (protein)
chain: MATVKKIGKKACVIGGSGFMASCLVKQLLHKGYAVNTTVRDPDNAKKISHLLALQSLGDLNIFGADLTGERDFDAPIAGCELVFQLATPVNFASEDPENDMIKPAISGVLNVLKACARAKGVKRVILTSSAAAVTINPVKDTGLVMDESNWTDVEFLNTAKPPTWGYPVSKALAEKAAWKFAEENHIDLITVIPTLTTGPSLTPDIPSSVGLATSLITGNDFLINALKGMQFLSGSISITHVEDICRAHIFVAENESASGRYIVSSHSTSVPELAKFLSKRYPQYKVPTEFDDCPSKAKLTISSEKLVKEGFSFKYGIEEIYDQSVEYLKSKGALKN
notes: full ORF (1014 bp PCR product) from seed coat cDNA, pET-30b, E. coli BL21; N-terminal His6 tag cut by enterokinase; forward primer encodes MATVKKIGK
Consider B1, for which, in data set [1], the K0.5 came to 114.2 ± 19.0 µM; the Vmax (usually the rate approached at saturating substrate) worked out at 0.0116 µmol/min/mg; the kcat (as a rule, the number of substrate molecules converted per active site and unit of time at saturation) is 0.0072 ± 0.0007 s⁻¹; the specificity constant (kcat/Km) (usually the second-order rate constant that governs catalysis at low substrate concentration) was 65.4 ± 13.8 M⁻¹ s⁻¹. In data set [2], the K0.5 was 103.5 ± 7.4 µM, the Vmax stood at 0.00334 µmol/min/mg, the kcat amounted to 0.0021 ± 0.0001 s⁻¹ and the specificity constant (kcat/Km) came out at 20.1 ± 0.49 M⁻¹ s⁻¹.
